The values below come from publication PMC10320493.

The target in assay [1] is human δ-opioid receptor (pcDNA3.1-human DOR) (human) (UniProt P41143).
Assay [2] addresses human μ-opioid receptor (pcDNA3.1-human MOR) (human) (UniProt P35372).
For assay [3] the target is unchanged. Put plainly: radioligand binding.
Assay [4] shares this target. The source holds these as a separate data set.

Turning to DADLE (peptide), the Gi/o-mediated cAMP inhibition (GloSensor, HEKT cells), pEC50 in assay [1] came to 9.69.

Consider “[D-Ala2, N-MePhe4, Gly-ol]-enkephalin (peptide)”, for which the maximal net BRET in the G protein (GoA) dissociation assay in assay [2] came to 0.15. In assay [3], the Kd was found to be 4.37 nM and the pKd came to 8.36. In assay [4], this substance displayed a Gi/o-mediated cAMP inhibition (GloSensor, HEKT cells), pEC50 of 8.65.
